This note sets out measurements from patent US12319742 (SHATTUCK LABS, dated 2025).

The target of experiment [1] is T1, biotinylated recombinant human TNFRSF25-His tagged (Acro #TN5-H52H3) (human, UniProt Q93038 25-199, biotinylated).
T1 construct: treated as the same protein; also called recombinant biotin-conjugated human TNFRSF25 protein; DR3
T1 sequence (looked up): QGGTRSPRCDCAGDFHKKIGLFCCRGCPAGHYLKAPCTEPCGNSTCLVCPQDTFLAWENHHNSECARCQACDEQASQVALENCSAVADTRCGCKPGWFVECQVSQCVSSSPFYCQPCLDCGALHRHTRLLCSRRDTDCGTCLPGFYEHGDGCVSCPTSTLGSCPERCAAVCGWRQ
The experiment can be described thus: MSD competition; TNFRSF25 on plate, antibody titrated, then TL1A-rabbit Fc 0.4 µg/ml as competitor. How it is done:
(§1) Figure 6: FIG. 6. […] Human TNFRSF25 was precoated on MSD assay plates followed by incubating with various concentrations of anti-TNFRSF25 antibodies.

For experiment [2], the target named is T1, biotinylated recombinant human …. The experiment can be described thus: BLI/Octet Red 96e; biotinylated TNFRSF25-His on streptavidin biosensor; 600 s association, 600 s dissociation. How it is done: Figure 4: FIG. 4. TNFRSF25 binding affinity of anti-TNFRSF25 antibodies. BLI assay was performed using the Octet Red 96e instrument. Streptavidin biosensors were loaded with biotinylated recombinant human TNFRSF25-His tagged (Acro #TN5-H52H3) as the ligand. During the association phase, biosensors were incubated with anti-TNFRSF25 antibodies at various concentrations for 600 seconds, followed by a 600-second dissociation phase.
To detect binding of certain whole antibodies to human TNFRSF25, streptavidin biosensors were loaded with biotinylated recombinant human TNFRSF25-His tagged (Acro #TN5-H52H3) as the ligand. During the association phase, biosensors were incubated with anti-TNFRSF25 antibodies at various concentrations for 600 seconds, followed by a 600 second dissociation phase.

Experiment [3] has the same target. Kind of experiment: BLI/Octet; biotinylated TNFRSF25 on streptavidin sensor, mAb in solution; 1:1 Langmuir model. The text has this:
Provided herein are monoclonal and biparatopic antibodies that specifically target human TNFRSF25. The monoclonal antibodies were produced in an engineered CHOK1 cell-line by transfecting the cells with vectors genetically encoding the Heavy and Light chain antibody sequences followed by a single-step affinity-capture chromatography using FcXL resins. The final monoclonal antibody preparation was buffer exchanged into PBS, pH 7.4. Production of biparatopic antibodies followed a two-step process. In the first step of the process, the so called Knob-half (or Hole-half) antibody was produced by transfecting an engineered CHOK1 cell-line with vectors genetically encoding the Knob (or the Hole) Heavy chain and the corresponding Light chain sequences. The CHOK1-cell-harvest from the Knob-half antibody and Hole half-antibody was then purified by Protein A column-based chromatography. In the second step of the process, the two half-antibodies were reassembled into the desired biparatopic format by the use of a mild reduction step followed by quenching the reaction with buffer exchange into PBS, pH 7.4. To detect binding of the antibodies to human TNFRSF25, recombinant biotin-conjugated human TNFRSF25 protein was immobilized onto a streptavidin-coated MSD (Meso Scale Discovery) plate and allowed to bind the anti-TNFRSF25 mAbs in solution. Following a washing step, the bound antibodies were detected using a sulfo-tagged anti-human Fc antibody. The results of these MSD assays are shown in arbitrary units (au) on the y-axis of FIG. 1. To determine the binding affinity of the antibodies to recombinant human TNFRSF25 protein, recombinant biotin-conjugated human TNFRSF25 protein was immobilized onto a streptavidin-coated BLI sensor and allowed to bind the anti-TNFRSF25 mAbs in solution phase. The binding affinity (K_D) was calculated using the on-rates (Ka) and off-rates (Kd) of mAb binding to the target using a 1:1 Langmuir binding model in the ForteBio data analysis software.
For orientation: Biolayer interferometry detects binding as a change in optical thickness at a sensor tip.

For experiment [4], the target named is FcγR1 (CD64), BLI reagent (UniProt P12314 16-288, limits assumed). Kind of experiment: BLI; antibody as analyte at 300 nM on FcγR1.
FcγR1 (CD64), BLI reagent, sequence (P12314 16-288 limits assumed): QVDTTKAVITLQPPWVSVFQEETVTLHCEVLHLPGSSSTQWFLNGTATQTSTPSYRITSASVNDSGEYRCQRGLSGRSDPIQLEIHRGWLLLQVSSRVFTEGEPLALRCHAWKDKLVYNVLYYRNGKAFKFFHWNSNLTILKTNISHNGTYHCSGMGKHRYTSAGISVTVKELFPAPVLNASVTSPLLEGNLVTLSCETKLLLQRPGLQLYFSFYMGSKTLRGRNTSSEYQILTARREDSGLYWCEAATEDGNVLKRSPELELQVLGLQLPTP
Experiment [5] concerns the target T2, biotinylated recombinant human FcRn-His tagged protein (Acro #FCM-H82W7) (human, UniProt P55899 24-297; P61769 21-119, biotinylated).
T2 construct: also called hFcRn; neonatal Fc receptor
The experiment can be described thus: BLI/Octet; biotinylated human FcRn-His on streptavidin biosensor. The procedure:
(§2) Figure 5D: FIG. 5D. FcRn binding kinetics by anti-TNFRSF25 antibodies. BLI assay was performed using the Octet Red 96e instrument. Streptavidin biosensors were loaded with biotinylated recombinant human(h) FcRn-His tagged protein (Acro #FCM-H82W7) as the ligand. During the association phase, biosensors were incubated with anti-DR3 candidate antibodies at various concentrations for 600 seconds, followed by a 600-second dissociation phase.
(§3) To detect binding of certain whole antibodies to the neonatal Fc receptor (FcRn) at neutral and acidic pH conditions, streptavidin biosensors were loaded with biotinylated recombinant human FcRn-His tagged protein (Acro #FCM-H82W7) as the ligand. During the association phase, biosensors were incubated with anti-TNFRSF25 antibodies at various concentrations for 600 seconds, followed by a 600 second dissociation phase.

The target of experiment [6] is T1, biotinylated recombinant human …. Kind of experiment: MSD competition (lower panel); antibody on TNFRSF25-coated plate, wash, then TL1A-rabbit Fc at 0.4 ug/ml, sulfo-tag anti-rabbit detection; raw MSD signal. The procedure:
as §1

For experiment [7], the target named is T2, biotinylated recombinant human FcRn-His …. The experiment can be described thus: BLI/Octet; biotinylated human FcRn-His on streptavidin biosensor; pH 6.0. The procedure: as §2, §3
The target is the same in experiment [8]. Kind of experiment: BLI/Octet; biotinylated human FcRn-His on streptavidin biosensor; pH 7.4. How it is done: as §2, §3
Experiment [9] deals with T1, biotinylated recombinant human …. The experiment can be described thus: MSD competition; scFv supernatant serially diluted on TNFRSF25-coated plate, then TL1A added and the remaining TL1A detected. From the text:
(FIG. 2A) TNFRSF25 was precoated on MSD assay plates followed by adding scFv supernatant at 2-fold serial-dilutions followed by detection of the myc tag present on the C-terminus of the scFv's. (FIG. 2B) scFv supernatant were serially diluted and added to an MSD-plate pre-coated with TNFRSF25.

T2 sequence (P55899 24-297 limits assumed, chain 1 of 2): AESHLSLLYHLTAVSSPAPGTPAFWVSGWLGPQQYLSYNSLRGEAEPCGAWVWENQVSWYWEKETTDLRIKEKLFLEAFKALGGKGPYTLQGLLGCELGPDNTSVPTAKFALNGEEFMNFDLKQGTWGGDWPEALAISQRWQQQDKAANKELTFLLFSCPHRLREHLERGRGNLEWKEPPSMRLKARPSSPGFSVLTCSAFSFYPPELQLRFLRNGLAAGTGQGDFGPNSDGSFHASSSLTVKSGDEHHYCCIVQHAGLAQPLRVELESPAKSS
T2 sequence (P61769 21-119 limits assumed, chain 2 of 2): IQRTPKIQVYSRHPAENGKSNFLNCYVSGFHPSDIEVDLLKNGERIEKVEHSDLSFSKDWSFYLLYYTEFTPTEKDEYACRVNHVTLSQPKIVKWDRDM

B1: NH46 (whole antibody) (antibody, human IgG1, kappa, V domains shown)
VH: QVQLVQSGSEVKKPGASVRVSCKVSGSTVKELSMHWVRQAPGKGLEWMGGYDPEDGESIFAQKFQGRVNMTEDRSTDTAYMELSSLRSEDTAVYYCATDLNWEDAFDVWGQGTMVTVSS
VL: QSVLTQPPSVSAAPGQKVTISCSGSGSNIGNYYVAWYQQFPGTAPKLLIYDNNKRPSGIPDRFSGSKSGTSATLGITGLQTGDEADYYCGTWDTSLTAGDIYVFGTGTKVTVLR
The term IC50 denotes the concentration that gives 50% inhibition. In general, koff refers to the rate constant with which the complex falls apart. By kon is commonly meant the rate constant with which the complex forms. As a reminder, the Kd is the equilibrium constant for the complex coming apart. As for B1, the IC50 in [1] is 0.26 nM. In [2], the “Response (RU)” value worked out at 1.06 RU, the off-rate (koff) was 8.54e-05 s⁻¹ and the kon came out at 452000 M⁻¹ s⁻¹. Further, the dissociation constant (Kd) in [3] was 0.185 nM.

B2: SL-034 (antibody, human IgG1, kappa, L234A L235A, N297A)
heavy: QVQLQQSGPGLVKPSQTLSLTCAISGDSVSGYSAAWNWIRQSPSRGLEWLGRTYYRSKWYNDYAVSVKSRITINPDTSKNQFSLQLNSVTPEDTAVYYCARDYYGSESYYNRGYYYYGMDVWGQGTTVTVSSASTKGPSVFPLAPSSKSTSGGTAALGCLVKDYFPEPVTVSWNSGALTSGVHTFPAVLQSSGLYSLSSVVTVPSSSLGTQTYICNVNHKPSNTKVDKKVEPKSCDKTHTCPPCPAPEAAGGPSVFLFPPKPKDTLMISRTPEVTCVVVDVSHEDPEVKFNWYVDGVEVHNAKTKPREEQYASTYRVVSVLTVLHQDWLNGKEYKCKVSNKALPAPIEKTISKAKGQPREPQVYTLPPSREEMTKNQVSLTCLVKGFYPSDIAVEWESNGQPENNYKTTPPVLDSDGSFFLYSKLTVDKSRWQQGNVFSCSVMHEALHNHYTQKSLSLSPGK
light: AIQLTQSPSSLSASVGDRVTITCRASPGISSALAWYQQKPGKAPKLLMYDESSQESGVPSRFSGSGSGTDFTLTISSLQPEDFATYYCQQFNDYPLTFGGGTKVEIKRTVAAPSVFIFPPSDEQLKSGTASVVCLLNNFYPREAKVQWKVDNALQSGNSQESVTEQDSKDSTYSLSSTLTLSKADYEKHKVYACEVTHQGLSSPVTKSFNRGEC
notes: Same variable regions as SL-033; also called clone 034; L234A/L235A+N297A
For B2, in [3], the Kd is below 1 nM. In [4], the binding result is listed as “no binding (tested: 300 nM)”.

B3: SL-061_LS (antibody, human IgG1, kappa)
heavy: QVQLQQSGPGLVKPSQTLSLTCAISGDSVSGYSAAWNWIRQSPSRGLEWLGRTYYRSKWYNDYAVSVKSRITINPDTSKNQFSLQLNSVTPEDTAVYYCARDYYGSESYYNRGYYYYGMDVWGQGTTVTVSSASTKGPSVFPLAPSSKSTSGGTAALGCLVKDYFPEPVTVSWNSGALTSGVHTFPAVLQSSGLYSLSSVVTVPSSSLGTQTYICNVNHKPSNTKVDKKVEPKSCDKTHTCPPCPAPEAAGAPSVFLFPPKPKDTLMISRTPEVTCVVVDVSHEDPEVKFNWYVDGVEVHNAKTKPREEQYNSTYRVVSVLTVLHQDWLNGKEYKCKVSNKALPAPIEKTISKAKGQPREPQVYTLPPSREEMTKNQVSLTCLVKGFYPSDIAVEWESNGQPENNYKTTPPVLDSDGSFFLYSKLTVDKSRWQQGNVFSCSVLHEALHSHYTQKSLSLSPGK
light: AIQLTQSPSSLSASVGDRVTITCRASPGISSALAWYQQKPGKAPKLLMYDESSQESGVPSRFSGSGSGTDFTLTISSLQPEDFATYYCQQFNDYPLTFGGGTKVEIKRTVAAPSVFIFPPSDEQLKSGTASVVCLLNNFYPREAKVQWKVDNALQSGNSQESVTEQDSKDSTYSLSSTLTLSKADYEKHKVYACEVTHQGLSSPVTKSFNRGEC
notes: SL-061 with LS half-life extension changes in the Fc
B3: the “fold improvement in binding affinity at pH 6.0 compared to pH 7.4” value in experiment [5] is around 10 fold. Besides, the “IC50 (read off the curve)” value in experiment [6] was around 0.2 nM. In experiment [7], the Kd was 0.879 nM, the koff turned out to be 0.000181 s⁻¹ and the kon was 206000 M⁻¹ s⁻¹. In addition, in experiment [8], the Kd stood at 6.78 nM, the koff is 0.00144 s⁻¹ and the kon came out at 213000 M⁻¹ s⁻¹.

B4: NH24-47 (scFv, not shown: small tags and cut ends)
scFv: EVQLVESGGGSVQPGGSLRLSCAASGFTFSSYGMSWVRQAPGKGLEWISYISSSGGHTYYADSVKGRFTISRDNAKNSLYLQMNSLRAEDTAVYYCARYSGAFDRWGQGTPVTVSSGGRGSGGGGSGSGGSDIVMTQSPSSLSASVGDRVTITCQASQDISNYLSWYQQKPGKAPKLLISDASNLETGVPSRFSGSGSGTDFTFTISSLQPEDIATYYCQQYDNLPITFGQGTRLEIKR
notes: one of the four variants of group m25; used as unpurified E. coli supernatant; the sheet prints NH24-47; also called NH24-47 scFv
With B4, the binding result in [9] is “binds”.

B5: NH24-72 (scFv, not shown: small tags and cut ends)
scFv: EVQLVESGGGSVQPGGSLRLSCAASGFTFSSYGMNWIRQAPGKGLEWITYISSSGGHTYYADSVKGRFTISRDNAKNSLYLQMNSLRAEDTAVYYCARGQGPFEYWGQGTLVTVSSGGRGSGGGGSGSGGSDIVMTQSPSSLSASVGDRVTITCQASQDISNYLSWYQQKPGKAPKLLINDASNLETGVPSRFSGSGSGTDFTFTISSLQPEDIATYYCQQYDNLPITFGQGTRLEIKR
notes: one of the four variants of group m25; used as unpurified E. coli supernatant; the sheet prints NH24-72; also called NH24-72 scFv
Consider B5, for which the binding result in experiment [9] was “binds”.

B6: SL-038 (antibody, human IgG1, kappa, L234A L235A, V domains shown)
VH: EVQLVESGGGLSQPGNSLQLSCEASGFTFSNHDMNWVRQAPGKGLEWVAYISSASGLISYADSVRGRFTISRDNAKNSLFLQMNNLKSEDTAMYYCARDPAYSGNYALDFWGQGTQVTVSS
VL: QPVLTQSPSASASLSGSVKLTCTLSSELSSYTIVWYQQQPDKAPKYVMYLKSDGSHGKGDGIPDRFSGSSSGAHRYLSVSNVQSEDDATYFCGAGYTLAGQYGWVFGSGTKVTVLR
For the molecule B6, the Kd in experiment [3] is 3.6 nM.

B7: NH24 (whole antibody) (antibody, human IgG1, kappa, V domains shown)
VH: EVQLVESGGGSVQPGGSLRLSCAASGFTFSSYGMSWIRQAPGKGLEWISYISSSGGHTYYADSVKGRFTISRDNAKNSLYLQMNSLRAEDTAVYYCARGSGSFDYWGQGTLVTVSS
VL: DIVMTQSPSSLSASVGDRVTITCQASQDITNYLSWYQQKPGKAPKLLISDASNLETGIPSRFSGSGSGTDFTFTISSLQPEDIATYYCQQYDTLPITFGQGTRLEIKR
On to B7, for which the IC50 in experiment [1] was 39.4 nM. Moreover, in experiment [2], the “Response (RU)” value was 0.73 RU, the off-rate (koff) came to 0.000742 s⁻¹ and the kon worked out at 1.26e+06 M⁻¹ s⁻¹. Further, the Kd in experiment [3] turned out to be 0.59 nM.
